# Laboratory results reported in the supplement of paper PMC5998384.
# What was measured:
# [1] = system: HeLa Kyoto; experiment: solubility in G1/S (NP-40 vs SDS abundance) (log2 ratio); higher = more soluble; conditions: cell cycle stage: G1/S
# [2] = system: HeLa Kyoto; experiment: solubility change mitosis vs G1/S (difference of NP-40 vs SDS log2 ratios) (log2 ratio difference); higher = more soluble in mitosis
# 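For solubility change mitosis vs G1/S (difference of NP-40 vs SDS log2 ratios) in this document: synchronized HeLa Kyoto cells (double thymidine block for G1/S, nocodazole release for mitosis), protein amounts in NP-40 versus SDS lysates quantified by mass spectrometry, three biological replicates.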
# 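For solubility in G1/S (NP-40 vs SDS abundance) in this document: HeLa Kyoto cells arrested at G1/S by double thymidine block, proteins quantified by TMT10plex mass spectrometry in mild NP-40 versus SDS extracts, three biological replicates.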
# Chain of COL4A1 (chain, as listed by the source): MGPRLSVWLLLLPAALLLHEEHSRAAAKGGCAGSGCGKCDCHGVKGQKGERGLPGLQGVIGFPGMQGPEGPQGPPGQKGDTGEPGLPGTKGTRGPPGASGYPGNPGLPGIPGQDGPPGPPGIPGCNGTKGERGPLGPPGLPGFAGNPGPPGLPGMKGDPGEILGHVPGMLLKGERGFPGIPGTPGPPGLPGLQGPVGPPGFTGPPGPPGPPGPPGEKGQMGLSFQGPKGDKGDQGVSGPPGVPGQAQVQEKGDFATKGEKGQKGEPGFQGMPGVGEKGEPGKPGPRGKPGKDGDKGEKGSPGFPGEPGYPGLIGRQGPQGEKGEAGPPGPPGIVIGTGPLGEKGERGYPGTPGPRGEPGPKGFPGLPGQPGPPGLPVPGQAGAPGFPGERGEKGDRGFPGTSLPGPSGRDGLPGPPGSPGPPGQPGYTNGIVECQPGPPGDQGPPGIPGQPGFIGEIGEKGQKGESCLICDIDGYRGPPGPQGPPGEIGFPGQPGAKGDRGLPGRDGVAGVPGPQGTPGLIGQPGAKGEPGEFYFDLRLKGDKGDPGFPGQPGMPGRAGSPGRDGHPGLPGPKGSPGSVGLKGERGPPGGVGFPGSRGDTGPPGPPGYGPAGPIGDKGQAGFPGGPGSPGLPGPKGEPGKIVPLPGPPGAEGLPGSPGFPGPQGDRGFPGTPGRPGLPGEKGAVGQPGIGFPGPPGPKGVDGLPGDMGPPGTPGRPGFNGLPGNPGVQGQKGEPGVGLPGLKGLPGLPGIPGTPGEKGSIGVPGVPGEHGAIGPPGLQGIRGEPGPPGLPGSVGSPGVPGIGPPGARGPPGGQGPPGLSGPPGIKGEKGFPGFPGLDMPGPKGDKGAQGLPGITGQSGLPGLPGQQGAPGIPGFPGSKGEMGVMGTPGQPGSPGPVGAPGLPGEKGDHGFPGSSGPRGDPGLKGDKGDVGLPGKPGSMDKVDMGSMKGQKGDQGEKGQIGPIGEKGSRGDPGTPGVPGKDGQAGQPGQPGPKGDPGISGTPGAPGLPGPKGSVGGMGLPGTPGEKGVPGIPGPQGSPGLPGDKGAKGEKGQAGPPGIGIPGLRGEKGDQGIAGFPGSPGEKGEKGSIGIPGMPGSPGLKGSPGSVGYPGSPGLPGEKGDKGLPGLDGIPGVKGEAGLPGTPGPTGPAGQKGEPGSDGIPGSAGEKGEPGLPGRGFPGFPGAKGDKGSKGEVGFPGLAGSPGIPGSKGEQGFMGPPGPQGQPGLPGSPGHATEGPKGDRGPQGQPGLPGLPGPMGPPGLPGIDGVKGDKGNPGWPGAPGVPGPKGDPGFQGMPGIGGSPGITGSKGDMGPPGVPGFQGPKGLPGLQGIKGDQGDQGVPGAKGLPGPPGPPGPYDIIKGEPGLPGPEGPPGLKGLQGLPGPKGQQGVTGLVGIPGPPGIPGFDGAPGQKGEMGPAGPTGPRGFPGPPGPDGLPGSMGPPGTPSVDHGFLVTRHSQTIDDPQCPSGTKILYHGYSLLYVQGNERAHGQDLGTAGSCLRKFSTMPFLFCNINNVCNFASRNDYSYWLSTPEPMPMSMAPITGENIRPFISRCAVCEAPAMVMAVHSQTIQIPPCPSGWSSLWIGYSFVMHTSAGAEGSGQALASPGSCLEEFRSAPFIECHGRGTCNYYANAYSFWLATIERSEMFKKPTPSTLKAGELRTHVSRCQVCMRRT
Substance,solubility in G1/S (log2) [1],solubility change mitosis (log2) [2]
MAGPPALPPPETAAAATTAAAASSSAASPHYQEWILDTIDSLRSRKARPDLERICRMVRRRHGPEPERTRAELEKLIQQRAVLRVSYKGSISYRNAARVQPPRRGATPPAPPRAPRGAPAAAAAAAPPPTPAPPPPPAPVAAAAPARAPRAAAAAATAPPSPGPAQPGPRAQRAAPLAAPPPAPAAPPAVAPPAGPRRAPPPAVAAREPPLPPPPQPPAPPQQQQPPPPQPQPPPEGGAVRAGGAARPVSLREVVRYLGGSGGAGGRLTRGRVQGLLEEEAAARGRLERTRLGALALPRGDRPGRAPPAASARPSRSKRGGEERVLEKEEEEDDDEDEDEEDDVSEGSEVPESDRPAGAQHHQLNGERGPQSAKERVKEWTPCGPHQGQDEGRGPAPGSGTRQVFSMAAMNKEGGTASVATGPDSPSPVPLPPGKPALPGADGTPFGCPPGRKEKPSDPVEWTVMDVVEYFTEAGFPEQATAFQEQEIDGKSLLLMQRTDVLTGLSIRLGPALKIYEHHIKVLQQGHFEDDDPDGFLG [SAMD1],-0.144,0.323
MPAPAATYERVVYKNPSEYHYMKVCLEFQDCGVGLNAAQFKQLLISAVKDLFGEVDAALPLDILTYEEKTLSAILRICSSGLVKLWSSLTLLGSYKGKKCAFRVIQVSPFLLALSGNSRELVLD [RPP14],-0.294,0.0872
MDEDEFELQPQEPNSFFDGIGADATHMDGDQIVVEIQEAVFVSNIVDSDITVHNFVPDDPDSVVIQDVVEDVVIEEDVQCSDILEEADVSENVIIPEQVLDSDVTEEVSLPHCTVPDDVLASDITSTSMSMPEHVLTSESMHVCDIGHVEHMVHDSVVEAEIITDPLTSDIVSEEVLVADCAPEAVIDASGISVDQQDNDKASCEDYLMISLDDAGKIEHDGSTGVTIDAESEMDPCKVDSTCPEVIKVYIFKADPGEDDLGGTVDIVESEPENDHGVELLDQNSSIRVPREKMVYMTVNDSQQEDEDLNVAEIADEVYMEVIVGEEDAAVAAAAAAVHEQQIDEDEMKTFVPIAWAAAYGNNSDGIENRNGTASALLHIDESAGLGRLAKQKPKKKRRPDSRQYQTAIIIGPDGHPLTVYPCMICGKKFKSRGFLKRHMKNHPEHLAKKKYHCTDCDYTTNKKISLHNHLESHKLTSKAEKAIECDECGKHFSHAGALFTHKMVHKEKGANKMHKCKFCEYETAEQGLLNRHLLAVHSKNFPHICVECGKGFRHPSELRKHMRIHTGEKPYQCQYCEYRSADSSNLKTHIKTKHSKEMPFKCDICLLTFSDTKEVQQHTLVHQESKTHQCLHCDHKSSNSSDLKRHVISVHTKDYPHKCEMCEKGFHRPSELKKHVAVHKGKKMHQCRHCDFKIADPFVLSRHILSVHTKDLPFRCKRCRKGFRQQNELKKHMKTHSGRKVYQCEYCEYSTTDASGFKRHVISIHTKDYPHRCEYCKKGFRRPSEKNQHIMRHHKEVGLP [ZFY],-0.668,0.257
MDILKSEILRKRQLVEDRNLLVENKKYFKRSELAKKEEEAYFERCGYKIQPKEEDQKPLTSSNPVLELELAEEKLPMTLSRQEVIRRLRERGEPIRLFGETDYDAFQRLRKIEILTPEVNKGLRNDLKAALDKIDQQYLNEIVGGQEPGEEDTQNDLKVHEENTTIEELEALGESLGKGDDHKDMDIITKFLKFLLGVWAKELNAREDYVKRSVQGKLNSATQKQTESYLRPLFRKLRKRNLPADIKESITDIIKFMLQREYVKANDAYLQMAIGNAPWPIGVTMVGIHARTGREKIFSKHVAHVLNDETQRKYIQGLKRLMTICQKHFPTDPSKCVEYNAL [PRPF18],0.178,0.09
MGNRGMEDLIPLVNRLQDAFSAIGQNADLDLPQIAVVGGQSAGKSSVLENFVGRDFLPRGSGIVTRRPLVLQLVNATTEYAEFLHCKGKKFTDFEEVRLEIEAETDRVTGTNKGISPVPINLRVYSPHVLNLTLVDLPGMTKVPVGDQPPDIEFQIRDMLMQFVTKENCLILAVSPANSDLANSDALKVAKEVDPQGQRTIGVITKLDLMDEGTDARDVLENKLLPLRRGYIGVVNRSQKDIDGKKDITAALAAERKFFLSHPSYRHLADRMGTPYLQKVLNQQLTNHIRDTLPGLRNKLQSQLLSIEKEVEEYKNFRPDDPARKTKALLQMVQQFAVDFEKRIEGSGDQIDTYELSGGARINRIFHERFPFELVKMEFDEKELRREISYAIKNIHGIRTGLFTPDMAFETIVKKQVKKIREPCLKCVDMVISELISTVRQCTKKLQQYPRLREEMERIVTTHIREREGRTKEQVMLLIDIELAYMNTNHEDFIGFANAQQRSNQMNKKKTSGNQDEILVIRKGWLTINNIGIMKGGSKEYWFVLTAENLSWYKDDEEKEKKYMLSVDNLKLRDVEKGFMSSKHIFALFNTEQRNVYKDYRQLELACETQEEVDSWKASFLRAGVYPERVGDKEKASETEENGSDSFMHSMDPQLERQVETIRNLVDSYMAIVNKTVRDLMPKTIMHLMINNTKEFIFSELLANLYSCGDQNTLMEESAEQAQRRDEMLRMYHALKEALSIIGDINTTTVSTPMPPPVDDSWLQVQSVPAGRRSPTSSPTPQRRAPAVPPARPGSRGPAPGPPPAGSALGGAPPVPSRPGASPDPFGPPPQVPSRPNRAPPGVPSRSGQASPSRPESPRPPFDL [DNM1],0.233,-0.0969
COL4A1,-0.0938,0.225
MEASRCRLSPSGDSVFHEEMMKMRQAKLDYQRLLLEKRQRKKRLEPFMVQPNPEARLRRAKPRASDEQTPLVNCHTPHSNVILHGIDGPAAVLKPDEVHAPSVSSSVVEEDAENTVDTASKPGLQERLQKHDISESVNFDEETDGISQSACLERPNSASSQNSTDTGTSGSATAAQPADNLLGDIDDLEDFVYSPAPQGVTVRCRIIRDKRGMDRGLFPTYYMYLEKEENQKIFLLAARKRKKSKTANYLISIDPVDLSREGESYVGKLRSNLMGTKFTVYDRGICPMKGRGLVGAAHTRQELAAISYETNVLGFKGPRKMSVIIPGMTLNHKQIPYQPQNNHDSLLSRWQNRTMENLVELHNKAPVWNSDTQSYVLNFRGRVTQASVKNFQIVHKNDPDYIVMQFGRVADDVFTLDYNYPLCAVQAFGIGLSSFDSKLACE [TULP3],0.0464,-0.00836
MKDVDNLKSIKEEWVCETGSDNQPLGNNQQSNCEYFVDSLFEEAQKVSSKCVSPAEQKKQVDVNIKLWKNGFTVNDDFRSYSDGASQQFLNSIKKGELPSELQGIFDKEEVDVKVEDKKNEICLSTKPVFQPFSGQGHRLGSATPKIVSKAKNIEVENKNNLSAVPLNNLEPITNIQIWLANGKRIVQKFNITHRVSHIKDFIEKYQGSQRSPPFSLATALPVLRLLDETLTLEEADLQNAVIIQRLQKTASFRELSEH [UBXN2A],0.0566,0.0265
MKFVYKEEHPFEKRRSEGEKIRKKYPDRVPVIVEKAPKARIGDLDKKKYLVPSDLTVGQFYFLIRKRIHLRAEDALFFFVNNVIPPTSATMGQLYQEHHEEDFFLYIAYSDESVYGL [GABARAP],0.16,-0.0822
MATFVSELEAAKKNLSEALGDNVKQYWANLKLWFKQKISKEEFDLEAHRLLTQDNVHSHNDFLLAILTRCQILVSTPDGAGSLPWPGGSAAKPGKPKGKKKLSSVRQKFDHRFQPQNPLSGAQQFVAKDPQDDDDLKLCSHTMMLPTRGQLEGRMIVTAYEHGLDNVTEEAVSAVVYAVENHLKDILTSVVSRRKAYRLRDGHFKYAFGSNVTPQPYLKNSVVAYNNLIESPPAFTAPCAGQNPASHPPPDDAEQQAALLLACSGDTLPASLPPVNMYDLFEALQVHREVIPTHTVYALNIERIITKLWHPNHEELQQDKVHRQRLAAKEGLLLC [TADA1],0.289,-0.0314
